From paper doi:10.1101/551788 come the findings set out here.

The target in this test is Tom20.CIB.GFP (not stated | A. thaliana). Put plainly: light-induced recruitment to mitochondria.

Consider “Cry2(1-531).L348F.mCh (from UniProt Q96524 1-531) (domain or fragment)”, for which the half-life of association with the OMM came out at 32.8 min.
Substance “Cry2(1-531).mCh (from UniProt Q96524 1-531) (domain or fragment)” gave a half-life of association with the OMM of 6.25 min.
